Changes are numbered by the printed parent chain.
B1: VG9B87 (antibody, human IgG1, kappa, V domains shown)
VH: QVQLVESGAEVKKPGASVKVSCKASGYTFTSEYIHWVRQAPGQGLEWMGIINPSGGSTSYAQRFQGRVTMTRDTSTSTVYMEVNSLRSEDTAVYYCARERGYSYGSFDYWGQGTLVTVSS
VL: EIVLTQSPSFLSASAGDRVTITCRASQGISSYLAWYQQKPEKAPKLLIYAASTLQSGVPSRFSGSGSGTEFTLTISSLQPEDFATYYCQQFNSYSLTFGGGTKLEIKR
B2: VG9B208 (antibody, human IgG1, lambda, V domains shown)
VH: QVQLQESGPGLVKPSETLSLTCTVSGGSISGYYWSWIRQPPGKGLELIGYIFYSGSINYNPSLKNRVTISLDTSKNQFSLKLTSVTAADTAVYYCARVGKWELRSSFDIWGQGTMVTVSS
VL: QSVLTQPPSVSAAPGQKVTISCSGSTSNIGNNDVSWYQQLPGTAPKLLIYDNNKRPSGIPDRFSGSKSGTSATLGITGLQTGDEADYYCGTWDSSLSVWVFGGGTKLTVLG
B3: VG9B372 (antibody, human IgG1, kappa, V domains shown)
VH: QVQLQESGPGLVKPSQTLSLTCTVSGGSISNGGFYWSWIRQHPGKGLEWLGYINYSGSTYYNPSLESRGTISLDTSKNQFSLKLRSVTAADTAVYYCARDRNYEWNFDLWGRGTLVTVSS
VL: EIVMTQSPATLSLSPGEGATLSCRASQSVSSYLAWYQQKPGQAPRLLVYDASNRATGIPARFSGSGSGTAFTLTITSLEPEDFVVYYCQQRSNWPLTFGGGTKLEIKR
B4: VG9B177 (antibody, human IgG1, lambda, V domains shown)
VH: QVQLQESGPGLVKPSETLSLTCTVSGGSINNYFWSWIRQPPGKGLEWIGYIFYSGSTNYNPSLKSRVTISIDTSKNQFSLKVNSVTAADTAVYYCARVGKWELRTAFDIWGQGTMVTVSS
VL: QSALTQPASVSGSPGQSITISCTGTSSDVADYNYVSWYQQHPGKAPKLMIYEVSNRPSGVSNRFSGSKSGNTASLTISGLQAEDEADYYCCSYTSSFTVVFGGGTKVTVLG
B5: VG9B114 (antibody, human IgG1, kappa, V domains shown)
VH: EVQLVESGGDLVQPGGSLRLSCAASGFTFSRYDMHWVRQATGKGLEWVSAIGSAGDTYYPGSVKGRFTISRENAKNSLYLQMNSLRAGDTAVYYCARGKWELRDAFDIWGQGTMVTVSS
VL: DIVMTQSPSFLSASVGDRVTITCRASQGIHSYLAWYQQKPGKAPKLLIYVASTLQSGVPSRFSGSRSGTEFTLTISSLQPEDFATYYCQQLNSYPYTFGQGTKLEIKR
B6: VG9B147 (antibody, human IgG1, lambda, V domains shown)
VH: QVQLQESGPGLVNPSETLSLTCTVSGGSISGYFWNWIRQPPGKGLEWIGYIFYSGSTNYNPSLKSRVTISVDTSKNQFSLKLSSVTAADTAIYYCAREGKWELRSTFDIWGQGTMVTVSS
VL: SSELTQDPAVSVALGQTVRITCQGDSLRSYYATWYQQKPGQAPILVIYGENNRPSGIPDRFSGSRSGNTASLTITGAQAEDEADYYCNSRDTGDHHLVFGGGTKLTVLG
B7: VG9B81 (antibody, human IgG1, kappa, V domains shown)
VH: QVQLQESGPGLVKPSETLSLTCSVSGGSINTYYWSWFRQPAGKGLELIGRIYTSDNTNYNPSLKSRVTMSVDTSKNQFSLKLSSVTAADTAVYYCARYNWNYWYFDLWGRGTLVTVSS
VL: B5 VL with V3Q, G16R, T20N, H30S, V50T, R66G, Q90H, L104V
B8: VG9B203 (antibody, human IgG1, lambda, V domains shown)
VH: QVQLVQSGPGLVKPSETLSLTCTVSGDSIGHYYWNWIRQPAGKGLEWIGRIYTSGSTNYNPSLKSRVTMSVDTSKNQFSLKLSSVTAADTAVYYCARSGGNFYWYFDLWGRGTLVTVSS
VL: B2 VL with T26S, D33Y, L40V, F63I, V98A, W99G, L107V
B9: VG9B380 (antibody, human IgG1, lambda, V domains shown)
VH: QVQLQESGPGLVKPSETLSLTCTVSGGSISNYYWSWIRQPAGKGLEWIGRIYPSGITSYDPSLKSRVTMSLDTSKNQFSLKLTSVTAADTAVYYCAGIMGTKGAFDIWGQGTMVTVSS
VL: QSALTQPASVSGSPGQSITISCTGTSSDVGGYNYVSWYQQHPGKAPKLLIYEVSNRPSGVSNRFSGSKSGSTASLTISGLQAEDEADYYCSSYTSTSVVFGGGTKLTVLG
B10: VG9B103 (antibody, human IgG1, kappa, V domains shown)
VH: EVQLVQSGAEVKKPGSSVKVSCKTSGGTFSSYAISWVRQAPGQGLEWMGGIIPIFGTATYAQKFQDRVTITADKSTSTAYMELSSLRSEDTAVFYCARGVGWGTDYYYGLDVWGQGTTVTVSS
VL: ETTLTQSPLSSPVTLGQPASISCRSSQGLVHSDGNTYLSWLQQRPGQSPRLLIYKISNRFSGVPDRFSGSGAGTDFTLKISRVEAEDVGVYYCMQATHHPLTFGGGTKVEIKR
B11: VG9B163 (antibody, human IgG1, lambda, V domains shown)
VH: QVQLVQSGGGLVKPGASLKLSCAASGFTFSNHGMSWVRQTSDKRLEWVASITRGGDTTYYPDNVKGRFTISRENAKNTLYLQMSSLKSDDTALYYCTRGPLTVGYAMDYWGQGTTVTVSS
VL: QLVLTQPPSVSAAPGQKVTISCSGNSSNIGHNYVSWYQQLPGTAPKLLIYDNNQRPSGIPDRFSGSKSDTSATLGITGLQTGDEADYYCGIWDSSLSIVVFGGGTKVTVLG
B12: VG9B387 (antibody, human IgG1, lambda, V domains shown)
VH: EVQLVESGAEVKKPGASVKVSCKASGFTFTGYYLQWVRQAPGQGLEWMGWINPNSGYTDYAQRFQDRVTMTRDTSINTAYMELSRLRSDDTAVYYCARLDDAFDVWGQGTMVTVSS
VL: SYELTQDPAVSVALGQTVRITCQGDSLRNYYAIWYQQKPGQAPVLVIFGKNNRPSGIPDRFSGSSSGTTASLTITGTQAEDEADYYCNSRDSSGNHWVFGGGTKLTVLG
B13: VG9B47 (antibody, human IgG1, kappa, V domains shown)
VH: QVQLVQSGAEVKKPGSSVKVSCKASGGSFSNYAISWMRQAPGQGLEWMGGIIPFFGTPDYAQKFQGRVTITADKSTSTAYMELSSLRSEDTAVYYCSTGGGYGDYDYYYGINVWGQGTMVTVSS
VL: DIVMTQSPLSSPVDLGQPASISCRSSQSLVHSDGNTYLSWLQQRPGQPPRLLIYKISNRFSGVPDRFSGSGAGTDFTLKISRVEAEDVGVYYCMQAKEFPLTLGGGTKVDIKR
B14: VG9B379 (antibody, human IgG1, lambda, V domains shown)
VH: EVQLVQSGPEVKKPGASVKVSCKASGYTFTGDYIHWVRQVPGQGLEWMGWINPNSGGTNYAQKFQGRVTMTRDTSISTAFMELSRLRSDDTAVYYCAREGGVAPAAPDAFDIWGQGTMVTVSS
VL: B12 VL with Y2S, N29S, I33R, L45V, F48Y, T68N, T77A, W97R
B15: VG9B392 (antibody, human IgG1, lambda, V domains shown)
VH: QVQLVQSGAEVKRPGASAKVSCKTSGYTFTGYYIHWVRQAPGQGLEWMGWINPNSGYTNSAQKFQGRVSMTRDTSISTVYMELSRLRSDDTAVYYCAREDDAFDIWGQGTLVTVSS
VL: B12 VL with Y2S, N29S, I33R, F48Y, T68D, T77A, Q78L, S92N, W97V, L105V
B16: VG9B96 (antibody, human IgG1, kappa, V domains shown)
VH: EVQLVQSGAEVKKPGSSVKVSCKASGGTFSNYAISWVRLAPGQGLEWMGGIIPIFSAGTYAQRFQGRVTITADKSTSTAYMELNSLRSEDTAVYYCSSNSGTYYDYYYGMDVWGQGTMVTVSS
VL: B13 VL with P12H, D14T, S57F, F60L, E98Q, L103F, D110E
B17: VG9B77 (antibody, human IgG1, kappa, V domains shown)
VH: EVQLVESGAEVMKPGSSVKVSCKASGGTFSSYAISWVRQAPEQGLEWMGGIIPFFGTADYAQKFQGRVTITADKSTNTAYMELTSLRSEDTAVYYCATATVTTDYYYGMDVWGQGTMVTVSS
VL: B13 VL with D1E, S10F, D14T, K55E, S61T, K97R, E98Q, L103F, D110E

Columns and labels:
[1] = target: Vg5/Vd2 T cell receptor expressed on SKW3 cells (UniProt A0JD36); assay: flow cytometry, dose-response binding at 37 C, SKW3 cells expressing Vg5/Vd2
[2] = target: Vg9/Vd1 T cell receptor expressed on SKW3 cells (UniProt Q99603); assay: flow cytometry, dose-response binding at 37 C, SKW3 cells expressing Vg9/Vd1
[3] = target: Vg9/Vd2 T cell receptor expressed on SKW3_4 cells (UniProt Q99603); assay: flow cytometry, dose-response binding at 37 C, SKW3_4 cells expressing Vg9/Vd2
[4] = target: Vg5/Vd2 TCR on SKW3 cells (UniProt A0JD36); assay: flow cytometry DRC binding 37 C, SKW3 cells expressing Vg5/Vd2
[5] = target: Vg9/Vd1 TCR on SKW3 cells (UniProt Q99603); assay: flow cytometry DRC binding 37 C, SKW3 cells expressing Vg9/Vd1
[6] = target: Vg9/Vd2 TCR on SKW3_4 cells (UniProt Q99603); assay: flow cytometry DRC binding 37 C, SKW3_4 cells expressing Vg9/Vd2
Chain of Vg9/Vd2 TCR on SKW3_4 cells (Q99603 21-122, chain 1 of 2): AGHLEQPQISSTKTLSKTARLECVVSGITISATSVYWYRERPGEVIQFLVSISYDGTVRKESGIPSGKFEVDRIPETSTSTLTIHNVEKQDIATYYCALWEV
Chain of Vg9/Vd2 TCR on SKW3_4 cells (A0JD36 20-115, chain 2 of 2, further chain): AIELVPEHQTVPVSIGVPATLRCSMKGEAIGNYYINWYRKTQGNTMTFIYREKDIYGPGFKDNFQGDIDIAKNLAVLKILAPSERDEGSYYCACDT

Chain of Vg5/Vd2 TCR on SKW3 cells (A0JD36 20-115): as the sequence (A0JD36 20-115, chain 2 of 2, further chain) above
Chain of Vg5/Vd2 T cell receptor expressed on SKW3 cells (A0JD36 20-115): as the sequence (A0JD36 20-115, chain 2 of 2, further chain) above
Chain of Vg9/Vd1 TCR on SKW3 cells (Q99603 21-122): as the sequence (Q99603 21-122, chain 1 of 2) above
Chain of Vg9/Vd1 T cell receptor expressed on SKW3 cells (Q99603 21-122): as the sequence (Q99603 21-122, chain 1 of 2) above
Chain of Vg9/Vd2 T cell receptor expressed on SKW3_4 cells (Q99603 21-122, chain 1 of 2): as above
Chain of Vg9/Vd2 T cell receptor expressed on SKW3_4 cells (A0JD36 20-115, chain 2 of 2, further chain): as the sequence (A0JD36 20-115, chain 2 of 2, further chain) above

Binder | Max. Activity (fold over background) [1] | Max. Activity (fold over background) [2] | Max. Activity (fold over background) [3] | Max. Activity (fold over background) [4] | Max. Activity (fold over background) [5] | Max. Activity (fold over background) [6]
B1 | 51.6 | 1.4 | 139 |  |  | 
B2 | 203 | 2.15 | 177 |  |  | 
B3 | 171 | 1.02 | 127 |  |  | 
B4 | 193 | 1.28 | 161 |  |  | 
B5 | 226 | 8.38 | 176 |  |  | 
B6 | 69.8 | 1.59 | 30.5 |  |  | 
B7 | 77 | 1.17 | 42.2 |  |  | 
B8 | 194 | 1.3 | 143 |  |  | 
B9 | 233 | 11.6 | 164 |  |  | 
B10 | 237 | 1.79 | 96.4 |  |  | 
B11 | 48.9 | 10.6 | 57.2 |  |  | 
B12 |  |  |  | 261 | 435 | 201
B13 |  |  |  | 212 | 308 | 162
B14 |  |  |  | 260 | 295 | 160
B15 |  |  |  | 281 | 295 | 154
B16 |  |  |  | 224 | 245 | 126
B17 |  |  |  | 148 | 137 | 102

From patent publication US20220125947A1
